The target of one test is T1, monkey EGFR-FLAG-Fc (monkey, UniProt P55245 25-638).
T1 construct: also called monkey EGFR-Fc; not shown: FLAG-Fc added to the C terminus
The experiment in a line: phage ELISA (scFv) on immobilized monkey EGFR-Fc. (In general: ELISA stands for enzyme-linked immunosorbent assay.)

In a further test the target is T2, human EGFR-FLAG-Fc (human, UniProt P00533 25-638).
T2 construct: also called human EGFR-Fc
Kind of test: phage ELISA (scFv) on immobilized human EGFR-Fc.

Test [1] has as its target T3, human EGFR on cells (human, UniProt P00533 25-1210).
T3 construct: also called membrane-associated EGFR on OE21 cells
The experiment in a line: flow cytometry on OE21 cells; x axis Alexa Fluor 488-A [B]. Background: A flow cytometer gives signals particle by particle.

Test [2] concerns the target T3, human EGFR on cells. The experiment in a line: flow cytometry on OE21 cells; x axis Alexa Fluor 488-A [A].
Test [3] has as its target T3, human EGFR on cells. The experiment in a line: flow cytometry on OE21 cells; x axis Alexa Fluor 488-A [C].
In the next test the target is T4, chimeric TfR A07 (human/mouse chimera, UniProt P02786 89-760).
T4 construct: also called M365L-V366E-E369Q
Kind of test: ELISA on immobilized chimeric TfR.

The next test deals with T5, chimeric TfR A02 (human/mouse chimera, UniProt P02786 89-760).
T5 construct: also called D352S-S355A-D356R-K358N
T5 chain: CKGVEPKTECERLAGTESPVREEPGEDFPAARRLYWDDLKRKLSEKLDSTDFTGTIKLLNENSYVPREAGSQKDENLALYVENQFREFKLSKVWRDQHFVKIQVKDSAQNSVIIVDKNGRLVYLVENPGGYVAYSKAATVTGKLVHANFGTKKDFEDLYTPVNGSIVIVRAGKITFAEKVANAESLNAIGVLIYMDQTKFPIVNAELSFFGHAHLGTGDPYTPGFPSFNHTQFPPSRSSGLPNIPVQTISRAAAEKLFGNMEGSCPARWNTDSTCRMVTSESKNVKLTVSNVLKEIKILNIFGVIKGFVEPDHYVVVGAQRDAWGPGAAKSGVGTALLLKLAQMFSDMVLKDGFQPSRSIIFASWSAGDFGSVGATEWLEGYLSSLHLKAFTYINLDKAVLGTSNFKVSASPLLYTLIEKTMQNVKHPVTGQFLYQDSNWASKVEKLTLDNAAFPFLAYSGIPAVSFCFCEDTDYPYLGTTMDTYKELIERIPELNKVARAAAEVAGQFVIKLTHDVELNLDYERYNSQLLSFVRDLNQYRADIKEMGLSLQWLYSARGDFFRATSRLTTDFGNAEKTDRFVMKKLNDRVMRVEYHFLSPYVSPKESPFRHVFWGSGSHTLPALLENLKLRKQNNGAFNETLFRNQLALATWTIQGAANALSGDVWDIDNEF
Kind of test: ELISA on immobilized chimeric TfR.

Test [4] addresses T6, huTfR with mouse apical domain (human/mouse chimera, UniProt P02786 89-760).
T6 construct: His tag added; also called chimeric protein of human TfR extracellular domain with mouse apical domain
T6 chain: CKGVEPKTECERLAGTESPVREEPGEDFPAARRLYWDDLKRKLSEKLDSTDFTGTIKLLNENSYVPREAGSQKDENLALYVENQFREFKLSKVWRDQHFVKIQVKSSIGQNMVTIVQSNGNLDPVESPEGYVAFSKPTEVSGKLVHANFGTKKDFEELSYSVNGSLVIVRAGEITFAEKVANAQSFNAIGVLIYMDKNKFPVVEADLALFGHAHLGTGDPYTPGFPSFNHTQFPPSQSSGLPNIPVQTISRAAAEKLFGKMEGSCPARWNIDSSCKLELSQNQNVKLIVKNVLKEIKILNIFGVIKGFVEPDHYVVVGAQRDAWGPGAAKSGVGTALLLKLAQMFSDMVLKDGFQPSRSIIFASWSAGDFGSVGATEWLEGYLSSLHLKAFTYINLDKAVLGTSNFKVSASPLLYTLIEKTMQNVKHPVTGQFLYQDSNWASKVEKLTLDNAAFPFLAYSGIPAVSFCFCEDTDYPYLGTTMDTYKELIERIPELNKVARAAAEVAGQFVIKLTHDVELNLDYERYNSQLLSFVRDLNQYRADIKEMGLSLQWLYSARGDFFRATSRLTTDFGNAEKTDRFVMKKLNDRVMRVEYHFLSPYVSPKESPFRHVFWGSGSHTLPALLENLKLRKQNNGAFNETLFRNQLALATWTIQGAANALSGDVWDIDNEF
Kind of test: ELISA on immobilized chimeric TfR.
Experimental: (§1) ELISA was carried out by the following method. To a 96-well immunoplate (NUNC, Inc.) on which an antigen protein was immobilized, 1% (w/v) BSA-PBS(−) pH 7.0 without KCl (hereinafter referred to as blocking solution, Nacalai Tesque, Inc.) was added to perform blocking at room temperature, and thereafter, the anti-TfR antibody diluted with the same solution was added thereto and a reaction was allowed to proceed at room temperature for 1 hour. Thereafter, washing was performed with 0.05% (w/v)-tPBS (1×) without KCl (pH 7.2) (hereinafter referred to as washing solution, Nacalai Tesque, Inc.), Anti-Human IgG (Fc) Goat IgG Fab″-HRP (IBL, Inc.) diluted with the blocking solution was added thereto, and a reaction was allowed to proceed at room temperature for 1 hour. Thereafter, washing was performed with the washing solution, and 1-Step (registered trademark) Ultra TMB-ELISA Substrate Solution (Thermo, Inc.) was added thereto, and a reaction was allowed to proceed at room temperature. The coloring reaction was stopped by adding a 5 N HCl solution, and an absorbance at a wavelength of 450 nm (reference wavelength: 570 nm) was measured using a plate reader (EPOCH 2: BioTek Instruments, Inc.).
(§2) Further, a value obtained by subtracting the absorbance at the reference wavelength of 570 nm from the absorbance at a wavelength of 450 nm was regarded as the binding activity to any of various types of antigen proteins, and a case where a value obtained by dividing the binding activity to any of various types of chimeric TfR by the binding activity to His-huTfR was 0.5 or more was denoted by ++, a case where the value was 0.2 or more and less than 0.5 was denoted by +, and a case where the value was less than 0.2 was denoted by −.

For a further test, the target named is T7, mouse TfR on CHO cells (mouse, UniProt Q62351 1-763).
T7 construct: also called mouse TfR/CHO
The experiment in a line: flow cytometry on mouse TfR/CHO cells.

In the next test the target is T8, chimeric TfR A03 (human/mouse chimera, UniProt P02786 89-760).
T8 construct: also called D245E-K261E
Kind of test: ELISA on immobilized chimeric TfR; grade = binding relative to His-huTfR (++ 0.5 or more, + 0.2 to less than 0.5).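 Further: Anti-TfR antibodies incubated 1 h at room temperature on plate-coated antigen, bound antibody detected via HRP-labelled anti-human IgG Fc with TMB substrate.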

For another test, the target named is T9, chimeric TfR A05 (human/mouse chimera, UniProt P02786 89-760).
T9 construct: also called P249S-L274F
Described as above.

The target of test [5] is T10, huTfR with mouse protease-like domain (human/mouse chimera).
T10 construct: His tag added; also called chimeric protein of human TfR extracellular domain with mouse protease-like domain
T10 chain: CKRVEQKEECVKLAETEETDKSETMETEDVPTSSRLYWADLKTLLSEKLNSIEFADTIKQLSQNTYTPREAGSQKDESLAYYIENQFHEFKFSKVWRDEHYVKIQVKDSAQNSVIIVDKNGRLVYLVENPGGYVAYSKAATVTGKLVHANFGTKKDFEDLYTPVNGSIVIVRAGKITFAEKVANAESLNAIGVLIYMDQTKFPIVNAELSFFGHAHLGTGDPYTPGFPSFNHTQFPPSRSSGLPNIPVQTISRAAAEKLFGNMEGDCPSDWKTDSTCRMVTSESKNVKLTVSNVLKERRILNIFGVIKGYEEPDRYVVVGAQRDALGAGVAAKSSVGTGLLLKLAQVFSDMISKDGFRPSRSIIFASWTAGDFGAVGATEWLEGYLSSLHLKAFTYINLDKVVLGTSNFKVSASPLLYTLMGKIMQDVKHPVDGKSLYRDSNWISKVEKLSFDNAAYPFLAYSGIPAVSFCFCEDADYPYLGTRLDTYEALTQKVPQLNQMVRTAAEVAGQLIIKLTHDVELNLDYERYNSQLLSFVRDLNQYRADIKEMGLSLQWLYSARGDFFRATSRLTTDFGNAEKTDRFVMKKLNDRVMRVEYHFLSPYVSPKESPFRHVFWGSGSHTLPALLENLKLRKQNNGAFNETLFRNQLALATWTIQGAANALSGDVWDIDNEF
Described as above.
Experimental: as §1, §2

Another test deals with T11, chimeric TfR A14 (human/mouse chimera, UniProt P02786 89-760).
T11 construct: also called D204Q-K205S-E369Q
The description is as above.

In a further test the target is T12, chimeric TfR A04 (human/mouse chimera, UniProt P02786 89-760).
T12 construct: also called D245E-K261E-D356R
Described as above.

In the next test the target is T13, monkey TfR on CHO cells (monkey).
T13 construct: also called monkey TfR/CHO cells
T13 chain: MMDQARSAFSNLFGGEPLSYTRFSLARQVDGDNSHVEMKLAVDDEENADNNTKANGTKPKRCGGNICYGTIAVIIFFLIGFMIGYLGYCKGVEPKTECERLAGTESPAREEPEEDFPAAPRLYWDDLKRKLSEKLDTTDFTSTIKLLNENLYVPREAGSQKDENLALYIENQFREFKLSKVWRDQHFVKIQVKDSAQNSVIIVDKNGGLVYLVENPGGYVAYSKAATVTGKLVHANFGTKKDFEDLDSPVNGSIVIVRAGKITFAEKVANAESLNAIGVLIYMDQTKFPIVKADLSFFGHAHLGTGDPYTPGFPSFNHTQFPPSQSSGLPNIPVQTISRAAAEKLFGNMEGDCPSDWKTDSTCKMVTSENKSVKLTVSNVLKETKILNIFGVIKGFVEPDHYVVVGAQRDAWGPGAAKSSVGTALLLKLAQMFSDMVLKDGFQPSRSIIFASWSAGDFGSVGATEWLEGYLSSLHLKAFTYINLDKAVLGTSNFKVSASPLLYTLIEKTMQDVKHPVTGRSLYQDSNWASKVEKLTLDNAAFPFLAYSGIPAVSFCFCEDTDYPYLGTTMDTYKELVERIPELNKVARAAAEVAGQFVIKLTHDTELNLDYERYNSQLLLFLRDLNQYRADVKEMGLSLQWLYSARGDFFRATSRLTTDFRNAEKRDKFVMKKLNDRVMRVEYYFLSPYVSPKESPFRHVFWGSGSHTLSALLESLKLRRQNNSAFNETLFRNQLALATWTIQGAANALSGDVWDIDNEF
Kind of test: flow cytometry of monoclonal phage (scFv) on monkey TfR/CHO cells.

For test [6], the target named is T3, human EGFR on cells. The experiment in a line: flow cytometry on OE21 cells; x axis PE-A [E].
The target in test [7] is T3, human EGFR on cells. Kind of test: flow cytometry on OE21 cells; x axis PE-A [D].

This note sets out measurements from US20220017635A1 (Kyowa Kirin, published 2022).

A value given as a limit tells only on which side of the number the result lay.

Experimental for chimeric TfR A02: as §1, §2
Experimental for chimeric TfR A03: as §1, §2
Experimental for chimeric TfR A04: as §1, §2
Experimental for chimeric TfR A05: as §1, §2
Experimental for chimeric TfR A07: as §1, §2
Experimental for chimeric TfR A14: as §1, §2
Experimental for human EGFR-FLAG-Fc: (§3) Specifically, it was carried out by adding a phage solution diluted with PBS-T containing 10% Block Ace (manufactured by Dainippon Pharmaceutical Co., Ltd.) to a 96-well immunoplate (NUNC, Inc.) on which an antigen protein was immobilized to allow a reaction to proceed at room temperature for 1 hour, followed by washing with PBS-T, and then, adding an anti-M13 antibody (manufactured by GE Healthcare, Inc.) labeled with horseradish peroxidase diluted with 1% BSA-PBS thereto to allow a reaction to proceed at room temperature for 1 hour.
(§4) The confirmation of a clone that specifically recognizes human and monkey EGFR-Fc was carried out by the ELISA method.
Experimental for monkey EGFR-FLAG-Fc: as §3, §4
Experimental for monkey TfR on CHO cells: After the reaction was allowed to proceed under 4° C. for 30 minutes, each well was washed 3 times with PBS-T.
Experimental for mouse TfR on CHO cells: Subsequently, an epitope analysis for various types of TfR antibodies was carried out.

B1: E12 (antibody, V domains shown)
VH: QVQLVESGGGLVQPGGSLRLSCAASRFTFSAYAMGWVRQAPGKGLEWVSIIDSGGVYTYYADSMKGRFTISRDNSKNTLYLQMNSLRAEDTAVYYCARDHYGVVWGLGDYWGQGTLVTVSS
VL: not shown
notes: also called anti-EGFR antibody E12; Clone E12
Turning to B1, the binding result with monkey EGFR-FLAG-Fc, in the test with human EGFR-FLAG-Fc and in the test with human EGFR on cells [1] was “binds” in each case.

B2: E08 (antibody, V domains shown)
VH: EVQLVESGGGLVQPGGSLRLSCAASGFSFNNNAMNWVRQAPGKGLEWVSGIRADGGTTYYADSVKGRFTISRDNSKNTLYLQMNSLRAEDTAVYFCGKTPDWEIFYYAMDAWGQGTTVTVSS
VL: not shown
notes: also called anti-EGFR antibody E08; Clone E08
For the molecule B2, the binding result in the test with monkey EGFR-FLAG-Fc, with human EGFR-FLAG-Fc and in the test with human EGFR on cells [2] was “binds” throughout.

B3: E17 (antibody, V domains shown)
VH: QVQLQQWGAGLLKPSETLSLTCALYSGSFSAQDWSWIRQSPEKGLEWIGEIWQGGKTNYNPSLKSRVSISRDNSKNQLSLQLSSVTAADTAVYYCARVDWSYRVFEIWGQGTMVTVSS
VL: not shown
notes: also called anti-EGFR antibody E17
Take B3: the binding result in the test with monkey EGFR-FLAG-Fc, with human EGFR-FLAG-Fc and in the test with human EGFR on cells [3] was “binds” throughout.

B4: cyno292 (antibody, V domains shown)
VH: QVQLVQSGGGLVKPGGSLRISCTTSGFPFDGYTMTWVRQAPGKGLEWVSSISNGGSTIFVSDSVRGRFTISRDNAKNSLYLQMNNVGAEDTAVYYCARARDAYGWTLPSDIWGQGTMVTVSS
VL: not shown
notes: also called anti-TfR antibody cyno292
Consider B4, for which the “ratio of ELISA binding activity (A450-A570) to chimeric TfR over that to His-huTfR” value was less than 0.2 ratio in the test with chimeric TfR A07; less than 0.2 ratio with chimeric TfR A02; less than 0.2 ratio in [4]; not below 0.5 ratio with chimeric TfR A03; not below 0.5 ratio with chimeric TfR A05; not below 0.5 ratio in test [5]. The “ratio of ELISA binding activity (A450-A570) to chimeric TfR over that to His-huTfR” value in the test with chimeric TfR A14 and in the test with chimeric TfR A04 was not below 0.5 ratio throughout. The binding result is on record as “no binding” with mouse TfR on CHO cells and “binds” with monkey TfR on CHO cells.

B5: KME09 (antibody, V domains shown)
VH: QVQLVQSGAEVKKPGSSVKVSCKASGGTFSSFAWGWVRQAPGQGLEWMGEIRPGFGTEIYAQNFQDRVTFITDEATSTTYMELSSLKSEDTAVYYCARGLLRSGYIDNPCDIWGQGTMVTVSS
VL: DIQMTQSPSSLSASVGDRVTITCRASQGISSWLAWYQQKPEKAPKSLIYAASSLQSGVPSRFSGSGSGTDFTLTISSLQPEDFATYFCQQYYNYPYTFGQGTKLEIK
notes: IgG4PE or IgG4PE R409K; also called anti-EGFR antibody KME09
Consider B5, for which, in the test with human EGFR on cells [6], the binding result is “binds”.

B6: KME07 (antibody, V domains shown)
VH: QVQLVQSGAEVKKPGSSVKVSCKASGGTFSSFAFGWVRQAPGQGLEWMGEVRPGFGTEILTQNFQDRVTITADESTSTTYMELRSLKSEDTAVYYCARGLLRGGYIENPFEIWGQGTLVTVSS
VL: B5 VL
notes: IgG4PE or IgG4PE R409K; also called anti-EGFR antibody KME07
Consider B6, for which the binding result with human EGFR on cells [7] is listed as “binds”.
